“Also recorded” adds a separate entry of the source.
How the values were obtained:
entorhinal explants = experiment: LPA induced neurite retraction in entorhinal explants; assay type: cell-based, rat; conditions: 100 nmol/l LPA, 10 min
Description: Entorhinal explants from E16 and P0 rat pups were obtained from timed-pregnant Wistar rats and were cultivated as described (N. E. Savaskan (2000) Eur. I. Neurosci 12:1024-1032). In brief, entorhinal cortex was carefully dissected from the hippocampal anlage and the meninges were removed. Explants were gently transferred with a fire-polished Pasteur pipette into 12-well plates and cultivated on baked glass cover slides coated with laminin and poly-L-lysin (25 μg/ml and 10 μg/ml, respectively) in culture medium containing selenium-defined fetal bovine serum [5%] (N. E. Savaskan et al (2000) FASEB J. e-published) (Neurobasal medium plus 25 μg/ml Penicillin/Streptomycin; B-27 supplement). After 24 h, culture medium was exchanged and cultivation was further performed in serum-free Neurobasalmedium for 20 h. Serum-starved explants were treated with 100 nmol/l oleoyl-LPA (5 mmol/l stock solution in ultra-filtrated water) for 10 min or with vehicle (0.9% NaCl) and then fixed in 4% paraformaldehyde for 20 min. For F-actin staining, fixed tissues were incubated with TRITC-phalloidin (0.1 μg/ml, Sigma, Germany) for 40 min, followed by incubation with HOECHST 33258 dye (1:20,000, Sigma, Germany) for 5 min at room temperature. […] Images were taken with a CCD camera on an Olympus BX-50 microscope and quantification was performed using the Meta Morph analysis system (Universal Imaging, PA). […]

[1] = test system: N1E-115 mouse neuroblastoma cells; experiment: LPA induced neurite retraction and protection in transfected N1E-115 cells; assay type: cell-based
Text: The rat PRG-1 full length clone was amplified by Marathon PCR (Clontech, USA) from adult rat hippocampus RNA (SEQ ID No. 17). For transfection studies, the full length PRG-1 coding sequence was fused to EGFP (pEGFP-N1 vector Clontech, USA). The PRG-1^His/Lys exchange mutant at the catalytic histidine (His-252) was introduced in the same protein fusion vector by site specific mutagenesis (CAT to AAG).
(§1) N1E-115 mouse neuroblastoma cells (ATCC: CRL-2263) were routinely grown in DMEM medium supplemented with selenium-defined fetal bovine serum (10%). The cells were seeded on baked glass cover slides at a density of 10,000 cells/cm^2. The next day, cells were transfected with the cationic lipids procedure (FuGene6, Roche, Germany) and cultivated for 24 h. Serum-starvation was performed for 20 h in DMEM medium, followed by treatment with 10 μmol/l oleoyl-LPA or vehicle (0.9% sodium chloride) (K. Jalink et al (1993) Cell Growth Differ. 4:247-255). After 10 min, cells were fixed in 4% paraformaldehyde for 20 min at room temperature and further analysis processed as described above. Images were taken with a CCD camera on an Olympus BX-50 microscope. Quantification was performed with the Meta Morph analysis system (University Imaging, PA). For statistical analysis Statview II was used (Abacus, USA). The effects of transfection on cell viability were analysed by MTT assay and propidium iodide staining (Savaskan N. E. et al. (2002) FASEB J. 17:112-114).

PRG-3 mRNA = PRG-3 mRNA in situ hybridization after kainate administration in vivo; set-up: species or system rat; conditions: 10 mg/kg i.p.
Text: For hybridization, we used two antisense oligonucleotides which both gave essentially the same hybridization signal: 5′-GCAGAGGTCTGAATTCTAGTGTCTATCGTTATAGTTCCTTAACAGTGTGGG-3′ (SEQ ID NO. 37) and 5′-CATCCTTCTGTAGTAGCTTTCTGCCTCTGCCTCCACTTCTCTCT-3′ (SEQ ID NO. 38) complementary to rat PRG-3 sequence (SEQ ID NO. 23). The oligonucleotide was synthesized by Metabion (Munich, Germany). The specificity was confirmed by a BLAST GenBank search to rule out cross-hybridization with other genes. We used the protocol as previously described (Brauer et al., 2001, supra).
Six rats, weighing 200-300 g, were weight-paired (±10 g per pair). These animals received a single i.p. injection of kainic acid (10 mg/kg bodyweight; from Ocean Products Int., Canada) freshly dissolved in 0.9% saline. Behavior was then observed constantly for 24 hr via video time lapse recordings. […] Severity of seizures was scored for 4 h after kainate injection using the classification of Zhang et al. […] Nissl-positive undamaged neurons were counted in five coronal brain sections per animal (sections were chosen by unbiased sampling), and the mean number of cells per section were determined such that the value obtained for each rat represents an average total number of neurons counted per section (250 μm by 250 μm square in the middle of the CA1 region). […]

N1E-115 cells [2] = experiment: Cell viability of N1E-115 cells after transfection (MTT assay, propidium iodide staining); assay type: cell-based, mouse; conditions: 48-72 h after transfection
Description: as §1

N1E-115 cells [3] = experiment: Ecto-phosphatase activity (extracellular LPA degradation) in transfected N1E-115 cells; assay type: cell-based, mouse
Description: The assay procedures used were adapted from those described in Imai et al. (2000) J. Clin. Endocrinol. Metab 85:3370-3375 and Hooks S. B. et al. (2001) J. Biol. Chem. 276:4611-4621. Briefly, transfected cells were harvested after serum-free cultivation for 20 h by scraping in lysis buffer (containing 20 mmol/l HEPES pH 7.4, 1 mmol/l NaHCO3, 500 μmol/l DTT, 1 mmol/l EGTA) and sonicated with two strokes (Bandolin GM 70, Germany). After centrifugation at 800×g, the supernatant was diluted in lysis buffer and centrifuged at 100,000×g for 1 h. Alternatively, the supernatant was topped on a sucrose step gradient (50% and 5%) and centrifuged at 100,000×g for 1 h (Savaskan, N. E. et al. (2000) Eur. J. Neurosci. 12:1024-1032. The resulting pellet and interphase, respectively, were re-homogenized and centrifuged again at 100,000×g for 1 h. The crude membrane pellet was re-suspended in reaction buffer (50 mmol/l HEPES pH 7,5; 1 mmol/l EGTA) and protein concentration was determined spectroscopically by Bradford protein assay (Amersham, Germany). Assessment of LPA metabolism was performed with exogenous ^3H-oleoeyl-LPA (Perkin Elmer, Germany) measuring ^3H-oleoeyl-glycerol production. […] All fractions of dried plates were scintillation counted and compared with authentic standards (LPA, 1-monoolein, 1,2-monoolein, oleic acid). […]

[4] = test system: hyperphosphorylated tau protein; experiment: Tau hyperphosphorylation in neurons overexpressing PRG-1 (cell culture model); assay type: cell-based
Text: Alzheimer's disease is characterized by intracellular neurofibrillary tangle formation formed by tau-based paired helical filaments (PHF) and by extracellular beta-amyloid plaques. The degree of Alzheimer dementia correlates well with the severity of PHF occurrence. These PHF are formed by hyperphosphorylated tau formation. […] To gain insights into the functional role of PRG-1 in Alzheimer's pathology we used an established cell culture model.

1- or 2-oleoyl-lysophosphatidic acid [LPA]
neurite retraction in embryonic entorhinal explants (entorhinal explants; E16 explants (no PRG-1 expression), n=20): rapid neurite retraction
neurite retraction in postnatal entorhinal explants (entorhinal explants; P0 explants (express PRG-1), n=22): did not differ significantly from vehicle treated control cultures
LPA-induced growth cone collapse of N1E-115 cells ([1]; eGFP-only transfected cells, 10 μmol/l LPA, 10 min): uniformly sensitive

C=C(C)[C@H]1CN[C@H](C(=O)O)[C@H]1CC(=O)O [kainic acid]
PRG-3 mRNA expression in hippocampus (PRG-3 mRNA; five days after kainic acid application): comparable levels to the adult non-treated controls
PRG-3 mRNA expression in hippocampus (PRG-3 mRNA; six hours after kainic acid application): rapid PRG-3 repression

B1: PRG-1: plasticity-related gene 1 protein, lipid phosphate phosphatase; rat full length clone expressed by transfection (protein)
chain: MQRAGSSGARGECDISGTGRLRLEQAARLGGRAVHTSPTGGLGARQVAGMSAKERPKGKVIKDSVTLLPCFYFVELPILASSVVSLYFLELTDVFKPVHSGFSCYDRSLSMPYIEPTQEAIPFLMLLSLAFAGPAITIMVGEGILYCCLSKRRNGAGLEPNINAGGCNFNSFLRRAVRFVGVHVVGLCSTALITDIIQLATGYQAPYFLTVCKPMYTSLEGSCKENSYIVEEICSGSDLTVINNGKKSFPSQHATLAAFAAVYVSMYFNSTLTDSSKLLKPLLVFTFIICGIICGLTRITQYKNHPVDVYCGFLIGGGIALYLGLYAVGNFLPSEDSMLQHRDALRSLTDLNQDPSRVLSAKNGSSGDGIAHTEGILNRNHRDASSLTNLKRANADVEIITPRSPMGKESMVTFSNTLPRANTPSVEDPVRRNASIHASMDSARSKQLLTQWKSKNESRKMSLQVMDSEPEGQSPPRSIEMRSSSEPSRVGVNGDHHVPGNQYLKIQPGTVPGCNNSMPAGPRVSIQSRPGSSQLVHIPEETQENISTSPKSSSARAKWLKAAEKTVACNRGNNQPRIMQVIAMSKQQGVLQSSPKNAEGSTVTCTGSIRYKTLTDHEPSGIVRVEAHPENNRPIIQIPSSTEGEGSGSWKWKAPEKSSLRQTYELNDLNRDSESCESLKDSFGSGDRKRKHIDSNEHHHHGITTIRVTPVEGSEIGSETLSVSSSRDSTLRRKGNIILIPERSNSPENTRNIFYKGTSPTRPYKD
cell viability (N1E-115 cells [2]): unaffected
increase in ecto-phosphatase activity compared to eGFP transfection alone (N1E-115 cells [3]): 5 fold
increase of LPA needed to overcome resistance against growth cone collapse ([1]; PRG-1 overexpressing N1E-115 cells, LPA dose response): 10 fold
protection against LPA-induced growth cone collapse / retraction of processes ([1]; transfected N1E-115 cells, 10 μmol/l LPA): resistance of N1E-115 cells to LPA-induced growth cone collapse; also recorded: did not prevent CPA-induced retraction of processes
LPA-induced actin-polymerization ([1]; transfected N1E-115 cells, phalloidin staining): prevented LPA-induced actin-polymerization
hyperphosphorylated tau and PHF formation ([4]; PRG-1 overexpression, tau hyperphosphorylation induced with okadaic acid or LPA): significantly decrease
hyperphosphorylated tau protein ([4]; neurons overexpressing PRG-1 vs control transfected cells): significant reduction
